Source: patent US11827885

T1: Murine RNase Inhibitor (New England Biolabs, Ipswich, MA), Q91VI7
T1 chain: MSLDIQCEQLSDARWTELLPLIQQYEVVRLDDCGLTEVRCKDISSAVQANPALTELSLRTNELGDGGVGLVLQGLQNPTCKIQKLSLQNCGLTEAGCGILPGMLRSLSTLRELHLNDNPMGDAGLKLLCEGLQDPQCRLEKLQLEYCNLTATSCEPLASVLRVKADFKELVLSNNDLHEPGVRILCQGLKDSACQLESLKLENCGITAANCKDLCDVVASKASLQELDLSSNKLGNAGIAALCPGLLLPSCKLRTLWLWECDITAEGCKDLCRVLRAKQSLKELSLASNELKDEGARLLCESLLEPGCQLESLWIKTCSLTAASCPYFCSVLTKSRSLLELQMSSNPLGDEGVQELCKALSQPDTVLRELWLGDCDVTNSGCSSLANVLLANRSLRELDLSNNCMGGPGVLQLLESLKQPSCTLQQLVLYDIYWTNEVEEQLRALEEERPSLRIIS

B1: RNase A (protein)
chain: KETAAAKFERQHMDSSTSAASSSNYCNQMMKSRNLTKDRCKPVNTFVHESLADVQAVCSQKNVACKNGQTNCYQSYSTMSITDCRETGSSKYPNCAYKTTQANKHIIVACEGNPYVPVHFDASV

Key:
RNase A = RNase A (UniProt P61823); experiment: cell-based or functional assay
[1] = biological target: T1, Murine RNase Inhibitor (New England …)

Molecule	inhibition of RNA degradation (gel), reaction at 60° C. (RNase A) [%]	RNA digestion (fluorescence of RNaseAlert RNA substrate, 37° C., 90 minutes) [1]
SUPERase-In (ThermoFisher Scientific, Waltham, MA)	< 50	–
B1	–	Three RNase A aptamers and Murine RNase Inhibitor are able to inhibit RNA digestion, but Murine Inhibitor show a slows a loss in RNase inhibition over time
